# Experimental data as given in paper PMC10323247.
# Tests used:
# [1] = biological target: recombinant human augmin complex (GFP-augmin), all eight full-length subunits HAUS1-HAUS8 (human) (UniProt Q96CS2); test: single-molecule TIRF fluorescence intensity analysis; GFP-augmin particles diffusing on microtubules; particle intensity divided by the intensity of single mGFP-augmin particles (photobleaching experiment); details: remark: other sources report otherwise
# [2] = biological target: GMPCPP- and Taxol-stabilised TAMRA-labelled microtubules of porcine brain tubulin (porcine) (UniProt P02550); test: TIRF microscopy binding assay; 1 nM GFP-augmin on surface-attached TAMRA-microtubules with importin α, importin β (25-400 nM) or importin α/β (25-100 nM each), with or without 3.5 μM RanQ69L; BRB80 binding buffer; 30°C
stoichiometry N [1],median background-corrected fluorescence intensity on microtubules with 100 nM importin α/β and 3.5 µM RanQ69L [2],median background-corrected fluorescence intensity on microtubules with 400 nM importin β and 3.5 µM RanQ69L [2],"median background-corrected fluorescence intensity on microtubules, control without importin [2]",Substance
< 10,,,,"recombinant human augmin complex (GFP-augmin), all eight full-length subunits HAUS1-HAUS8, Q96CS2-1 1-278; Q9NVX0-1 1-235; Q68CZ6-1 1-603; Q9H6D7-1 1-363; O94927-1 1-633; Q7Z4H7-1 1-955; Q99871-1 1-358; Q9BT25-1 1-410"
,338,273,321,"recombinant human augmin complex (GFP-augmin), all eight full-length subunits HAUS1-HAUS8 (from UniProt Q96CS2-1 1-278; Q9NVX0-1 1-235; Q68CZ6-1 1-603; Q9H6D7-1 1-363; O94927-1 1-633; Q7Z4H7-1 1-955; Q99871-1 1-358; Q9BT25-1 1-410)"
